Test: soluble fraction after stress (log2 fold change); higher = more stays soluble; pooled small domains, quantitative proteomics
Conditions: stress: 75 degC
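Also: 20 min heating vs room temperature control held 20 min.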

Point of comparison: “HMAAVPYQVKITTEDLRIRTGPGTNHDFTGQYTGKGVFTIVEESEGSGAPIWGRLKSGAGWIGIDPSWSVR”, “soluble fraction (log2)” value -0.546. Against it:
- HMAADWTAIKLAYVNGGMSMRELAQRFHVGAAGLMKRAAKEGWEAERQQNSAKVSNAAQMLIN — higher, 0.049
- HMAAEEAFPGGRIVQNAEENRLQILFDEIPGEDVRAALKSHGFRWSPKNKAWQRQLTQNAEYDARRILGI — higher, -0.06
- HMAAEELTVDKILTAQSFGVTAEAILAKVNDPANTVATLTQADVDRLRAAGVPEGVVTALQARAPQ — higher, 0.118
- HMAAENAVGARVKALREAMDLSLRDLSERSGVSPTMLSQVERGSTSPTLAVAEKIAAGLDLSLSQLLRL — higher, 0.137
- HMAAGADEATTVPNVSGDTLNQAIKSLKAEGLGYMLSGAGARVRDQMPEPGAEMTKGSVVMLYMDGDAEVD — higher, -0.0497
- HMAAGVESLTEKEFAVASLVGGGASNREIAERLAMSERTVKSHLSSIFRKMDVRDRVQLALAMND — higher, -0.0767
- HMAAIPATVDEETYRRLKPMLKQYGILYHEFKPLRSGKKGAVELIFMEKDLALVQELLSRLKKEK — higher, 0.432
- HMAAIPEQVSEEVVSAVKASGIDPGKVTKEQWTSLLKGRRTALGSSSGKLFMLSKAPVGYTLKAVNA — higher, 0.439
- HMAAMDMFVKLDALDAELTEQLKALPAEPDDARVERGLALLTDYDHRIKALLTEIFGGENDFDKVL — lower, -3.1
- HMAAPPPLSDYRNMQEAEHIRNILLQHHGNVRRAAAALELSRPYLYQKMKQLGINIAELRELSLSHSS — lower, -1.03
- HMAASEAESIRILLSEGVDRVHLRKPQSAEADMRRLIEALPPELYPRLTLQDHLHLAGEYGT — higher, -0.0361
- HMAATGPLTPREAEIARLAAGHLSNRQIAEQLVVSERTVENHLYRIFIKLAVTGRDDLAAALAATEQ — lower, -2.55
- HMAATNVKVPDLKGWDYNNAVGKYGDKLSFVKKSIYSDSVSKGIIIYNARVGETVAQGTTIEVTVSLGPKG — lower, -1.46
- HMADAGQTTAATELKQAPNAGSATISQLSAGQTLQIGTRQGAWYQVKTPQGEGWVRMLSVRLQ — higher, -0.0302
- HMADEGFRQTVLAVLARWESKIHHGQYNALKAKVMNGNWSSFVKQVVKFQGKFIHPDAAKELLGLFG — lower, -3.5
- HMADFIKEIKTNNPRQLLKSILSSFMPRALILELEMLLWNDLKSKPIGEWSNTQIENVGKLLNNWILKPAA — higher, 0.162
- HMADIWDLLRSEYKLTETDVRMLTDMLPDELMNDFRSEVLALRDRMNRYKVNNPKSYVVTSLKNFIIQHTP — lower, -1.09
- HMADKNIIGVLSAADNLGKVRITTANGEKYIITVPDGLSDIVKTYWEEEVSVKYVIEKRRKILVDIDG — lower, -2.04
- HMADLIIMSSDATEKQVDKVINKIKNMGFNVNISKGTEKTIIGIIGDTRGISDEVFKIMPGVIEVISILRD — lower, -1.09
- HMADLIVFTTDANKEKKVDDETYFYLDVVSDGKLVENYELTEKQYNYIKDLGVGEYVYNEKGKLDSYTAFT — higher, -0.00206
- HMADPLQLLEQQRQDYIQAVTEYLNSHPNAKPIWDVMKKDAGYGDMKLTDIPLGILKKLYITLT — within 0.2 log units, -0.65
- HMADRVFGHIPGVAVGSIFPDRRSLSQTGVHRPTQAGISGNKTDGADSIVVSGGYRDDRDYGDLIIYTG — higher, -0.107
- HMADTFVMPDLVYRRYEPVRGYFERGGFHMGAVKFEPYEGISDGTILRQNPLPGHPLRRRDVISLVVAAS — lower, -2.4
- HMADYYETLGVERTASEEDIKRAYRKMSRKYHPDIAGPEFEEKFKEVNTAYEVLSDPDKRRMYDAGVDPND — higher, 0.0815
- HMADYYSILGLTKNATDIEIKSAFRKLAKIYHPDKNPDPNARVLFEHILKAYDTLINPHSRRRYDSL — lower, -1.31
- HMAEELELFHRLISVTGVGPKGALGFLSQLKPQEIILAILSDDVKTLSKAPGVGRKTAQRVILELKDKF — lower, -1.07
- HMAEGPYSGKKVEKYPGGMEKRETMYSEGKLTRVTEFHQSGQKKMEVKVDANGQWKRLYWDNNGNPT — higher, -0.0401
- HMAEIIVHEINRHLGESDEPVEFPEERREEAVAELLKNFHNDDAFRKMDDGKYEVALDGEAVREAARSLLA — higher, 0.175
- HMAELTTVQAADILHVSRPFLIKLLDEGQIPYHRVGKHRRIRMEDVMNYKRAIDQQREAVLDQLVAEA — within 0.2 log units, -0.371
- HMAEMLQDVLNMLSAKDREILVRYYYYYESVKQVAAEMQMSESAVKMRMSRARKKMQQELIDKG — lower, -4.61
- HMAEPAEDLLSLEGMDKGLAYQLASNGVVTREDLAELATDDLLEIREMDAEQAAALIMKAREHWFEAEQQ — higher, 0.755
- HMAEPEALLAMAQRILGEEVAQSLFQGAAREQGKEGYLPDPTPAFLDALEARLSGSVGAATAHAMISQLVG — higher, -0.15
- HMAEPSTSYTQFMDQAKEGKIKRVDVQGRTLTVTPTEGATYKITAPGDLWMVEDLRKAGVQVYGQP — higher, 0.29
- HMAEPYDERKVMEQMIPKGKNTIVAHLGHLKDHGETGYLQEALSYLRERESELGFDLKEVRALVHN — higher, 0.365
- HMAEQVLHQKLAARRKELNSLVAQVARVRGIPHSHVHSGLRREAGGPPLAQATTDQVEARISLARKWLRA — lower, -1.47
- HMAERLQARIDAPGVRLDKALAETFPTLSRARLQALLADGAVTRDGQTVSNGSAKAQPGLYVVALPPVA — higher, 0.385
- HMAESNQIQLSDVREALNMIGPASWLDLVHYLDTGKGRGGQRLRRMLKSLSRSGEIELVARGTYQITDN — within 0.2 log units, -0.437
- HMAEVALFVNGSDVNLRSGPGQESTRVIGSLNLGDEVRIKSQNGQWREVYVPKTRQVGWVAHWLLSEAPP — within 0.2 log units, -0.535
- HMAEVPDLRNKTQQEAEAELTNHNLKLGNVTEEYSATVEAGRVISQSTSYGTKVLEGSSVDITISKGPEPT — higher, 0.135
- HMAEWLFDARKIPDEVMNYLRRIAVQAIEEKHYSPELVADLLGISRSSIYDWLNWYRNGGEEDLDTRKA — lower, -1.53
- HMAFAQMAQEAAKGKDDFNDLRQEMEAVIKEQPHILLMAQFGQNPYEIAYQEAKRRKAQDQQQQQ — higher, 0.877
- HMAFGTGTVTASSLRVREDASTSAATLDTLSKGSKVSVLADEQDGFYKVQIGEQVGYMSAEYLDVTE — higher, 0.00175
- HMAFKNGLLQTSKKVTLVRKVDGVTMRFDSLRAASVFLGRNKGYLSNVIKNGRTLDNYEIVVGE — lower, -1.04
- HMAFRIGGFVQEGSVVRQQDGGTVRFEVTDTAHSVPVTYKGSLPDLFKEGKGVVAQGKLMNGTFVADQVLA — higher, 0.165
- HMAGATDTVRNLLERQIREGELLPGQRLPTEPELAARLGVSRNSLREALQSLEDSGLIVKRHGIGTFVTE — higher, 0.0985
- HMAGLELVVTREQAGRTVKSLLRGELGISTALMGRLKRTGTGLTVNGTRVFTNAVLREGDRLAVDLDAAE — lower, -1.35
- HMAGLKERLFYFIEYKGLTVQSFEKTVGLSNGAVSKMGDNTRRSTIDKISNFFGDLNKNWLLTGEGEMLI — lower, -2.98
- HMAGRKMMVMANNLSVRKSANSLSEKLADLSRGDTVEYISSTNGWNKVRYKGQIGYVSSYYLKDTGEEVE — within 0.2 log units, -0.562
- HMAGTKRAENIEIQKLTEVLEARLDSVGFFWPDHKAESMIMTLRNMISRLPLTEADVRVFHGIIKSLADK — within 0.2 log units, -0.486
- HMAGTWQDQGNGQWKYQNDDGSYATGWIEDSGKSYYLDANGIMLANTTTPDGKQVGPDGALIP — higher, -0.15
- HMAHETIDVAALRVGMFVQLDLGWLSHPFPLSSFRISSEDQIATIRALGLKRVRWSSEQSDS — lower, -4.58
- HMAHPRTHEALNPLWEKYLGPNAGNDFFLSGGTSLKALMFLKDLEKTLNKRIAIHAFFKDPTYEHVVSD — lower, -0.84
- HMAHTGGNTLTREKAVSVRSASDALLFEIHWNETPREDILSTREEKVDGKTYSIITIRTGKGREDHYYLLS — lower, -1.35
- HMAHYPGKVNNELVEFIRSEQRKTPHMTLTGLNRKLQRTYDLTLSESTVRKLVEAETILPLAREPD — higher, -0.25
- HMAIDLPVTTVNGKDYYYYDVQPKETIFSLSQRLGISREEIISYNPGVDGGLKAYTRLYFPVESGL — lower, -1.21
- HMAIDLSLIPGNLLRELHGAVEDGDMYRIRELIRSISAVDEKVGKELLLLAERYDYERLLELVND — lower, -0.887
- HMAIDWVQIKAEYISGTMSASKLAEKHGVSVYAIRKRSGKERWQELRRQNQSETANKIAEKI — lower, -2.16
- HMAIDYYQTLINLGYKLQDRGDYWQTSAIHRGGDNPTALQIYKNTGVWKDYVSGGGFKPFKALVEKSD — lower, -0.944
- HMAIELTPRQLDIIELVRKHAPITGEQIAELLGVTRPSIRSDLGLLVMLGYIDAKPKVGYFAGPRM — lower, -1.16
- HMAIGSRLKVTTDATNLNIRSTPSTEGDIVGKAAHHEIVTLVEKTDDSWWKIKTNDGEEGYAYAQYLSPV — higher, -0.031
- HMAIIQSNNIFKSQKEIVDEILVELDIPKDKWNFFHMLISSGYKDEFDTNRIYEIIQTNYNMMDR — higher, -0.298
- HMAILDTALDVLSMNLKDNYTSFQILRQAAIAGKIAFNLTEKNPLGGVIEVELTGDDLETWIEAATW — higher, 0.183
- HMAIMISINAKGEVAWNDQIISLDDLAQRFNAAGQQAQKPTVQLRADKESRYDMVAQVMSRASEAGLSDIA — lower, -0.83
- HMAIRLIKASREFNVGISTIVEFLEKKGHAIDSDPNSKIPDELYQLIEKEFQTEGSVKKAAKQI — lower, -1.81
- HMAITLEVAKKHLEMWLEAESEVAINQSYTIGGKSFTRANLAEIRKQIEYWSNKVAELENLA — lower, -1.04
- HMAITYETKVISGVNLRSAPSTSASVYQLIPKGENIHVVQKVNDYWLKVQTKDGKTGYISASSKYTNYIG — lower, -2.7
- HMAIWAVFYKNEPFNLKSFNSLTSYPGPKYKKTSFSNPGHALNLAKKLNLTFGTEDFQVVKLTQGTIV — lower, -2.69
- HMAKIEVENLEETILENLKANNGFMPYNDKTSPEEIYEVFHVSKKHFKNSLGGLMKKGLIFQNEKGTKL — higher, -0.193

Source: the domain aggregation screens of Martell et al. (2025)
